Biological target: rabbit skeletal muscle actin, polymerized in vitro (F-actin) (rabbit) (UniProt P68135)
Test: co-sedimentation; F-actin cosedimentation: CaVβ proteins incubated with polymerized actin in polymerization buffer (0.2 mM CaCl2, 50 mM KCl, 2 mM MgCl2, 1 mM ATP, 5 mM HEPES pH 8.0), 25 µM phalloidin; 150,000 × g, 20 min, 4 °C; densitometry of pellet over total; also at 30–150 mM NaCl and after 30 or 90 min of incubation

percent cosedimented with actin: > 80%
Substance: CaVβ4 R482X (truncated, naturally occurring variant of human CaVβ4 linked to juvenile myoclonic epilepsy) (from UniProt O00305-1 1-431) (domain or fragment)
